# Measured values from the nanobody polyreactivity screen of Harvey et al. (2022).
# Assay: yeast display, Sf9 membrane polyspecificity reagent, FACS + sequencing; frameworks hold sequencing errors
# Procedure, shortened: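 A synthetic nanobody library was expressed on Saccharomyces cerevisiae BJ5465 by galactose induction for 36–48 hours. The library was stained for 1 hour at 4 °C with 10% biotinylated, detergent-solubilized Sf9 membrane reagent and enriched with streptavidin microbeads before FACS. Low and high (top ~1%) gates were set on anti-HA fluorescence for expression and streptavidin fluorescence for reagent binding, and each polyreactivity label reflects the gate of origin.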
row,Sequence,polyreactivity (PSR sort gate)
1,QVQLVESGGGLVQAGGSLRLSCAASGSTFSPYAMGWYRQAPGKERELVANITISGGSTYYADSVKGRFTISRDNAKNTVYIQMNSLKPEDTAVYYCNADSLIRWLFTVVIFDYWGQGTLVTVSS,low polyreactivity
2,QVQLVESGGGLVQAGGSLRLSCAASGSTFSPYAMGWYRQAPGKERELVANITISGGSTYYADSVKGRFTISRDNAKNTVYLQMNSLKPEDTAVYFCNADSLIRWLFTVVIFDYWGQGTQVTVSS,low polyreactivity
3,QVQLVESGGGLVQAGGSLRLSCAASGSTFSQNALGWYRQAPGKDRELVAAITSGGITYYADSVKGRFTMSRDNAKNTVYLQMNSLKPEDTAVYYCAADFWPSGRGVAFDYWGQGTQVTVSS,low polyreactivity
4,QVQLVESGGGLVQAGGSLRLSCAASGSTFSRNAMGWYRQAPGKERELVAAISWRGGRTYYADSVKGRFTISRDNAKNTVYLQMNSLKPEDTAVYYCAAEHKYRYDYWGQGTQVTVSS,low polyreactivity
5,QVQLVESGGGLVQAGGSLRLSCAASGSTFSRNAMGWYRQAPGKERELVAAITLRGTNTYYADSVKGRFTISRDNAKNTVYLQMNSLKPEDTAVYYCAALRRGSGRYDMDYWGQGTQVTVSS,high polyreactivity
6,QVQLVESGGGLVQAGGSLRLSCAASGSTFSRNASGWYRQAPGKERELVAAISRRGDTTYYADSVKGRFTISRDNAKNTVYLQMNSLKPEDTAVYYCNRLTIGSSSYDYWGQGTQVTVSS,high polyreactivity
7,QVQLVESGGGLVQAGGSLRLSCAASGSTFSRYAMGWYRQAPGKEMELVAAITGSGGNTYYADSVKGRFTISRDNAKNTVYLQMNSLKPEDTAVYYCAAEDYVGWYNFEYWGQGTQVTVSS,high polyreactivity
8,QVQLVESGGGLVQAGGSLRLSCAASGSTFSRYAMGWYRQAPGKEREFGAAISRRAGGTYYADSVKGRFTISRDNAKNTVYLQMNSLKPEDTAVYYCAKVLPRDYIGRATYDYWGQGTQVTVSS,high polyreactivity
9,QVQLVESGGGLVQAGGSLRLSCAASGSTFSRYAMGWYRQAPGKERELVAAISSRGGSTYYADSVKGRFTISRDNAKNTVYLQMNSLKPEDTAVYYCNALTSYQNHVYPYDYWGQGTEVTVSS,high polyreactivity
10,QVQLVESGGGLVQAGGSLRLSCAASGSTFSRYAMGWYRQAPGKERELVAAITRSGGGTHYADSVKGRFTISRDNAKNTVYLQMNSLKPEDTAVYYCATDYTKYPTGYYYWGQGTQVTVSS,low polyreactivity
11,QVQLVESGGGLVQAGGSLRLSCAASGSTFSRYSMGWYRQAPGKERELVAAITGRGGRTYYADSVKGRFTISRDNAKKTVYLQLNSLKPEDTAVYYCAAYYGPYRSLYYYWGQGNQVTVSS,high polyreactivity
12,QVQLVESGGGLVQAGGSLRLSCAASGSTFSRYTMGWYRQAPGKERELVAVITRRGGSTYYADSVKGRFTISRDNAKNTVYLQMNSLKPADTAVYYCAADYKYPIDYGYWGQGTQVTVSS,high polyreactivity
13,QVQLVESGGGLVQAGGSLRLSCAASGSTFSSNAMGWYRQAPGKEREFVAAISRRTGSTYYADSVKGRFTISRDNANNTVYLQMNSLKPEDTAVYYSAATGEKLARSSFGYWGQGTQVTVSS,low polyreactivity
14,QVQLVESGGGLVQAGGSLRLSCAASGSTFSSNAMGWYRQAPGKERELVAAISKRGGRTYYADSVKGRFTISRDNAKNTVYLQMNSLKPEDTAVYYCAKDYSSAVDYWGQGTQVTVSS,high polyreactivity
15,QVQLVESGGGLVQAGGSLRLSCAASGSTFSSYAMGWYRQAPGKERELVAAISSSGGTSTYADSVKGRFTISRDNAKNTVYLQMNSLKPEDTAVYYCAARQYRRLRDYRHDYWGQGTQVTVSS,high polyreactivity
16,QVQLVESGGGLVQAGGSLRLSCAASGSTFSSYAMGWYRQAPGKERELVAAISYSGGSTYYADSVKGRFTISRDNAKNTVYLQMNSLKPEDTAVYYCAAVGTWQHRSYGYWGQGTQVTVSS,high polyreactivity
17,QVQLVESGGGLVQAGGSLRLSCAASGSTFSSYAMGWYRQAPGKERELVAAITSGTRTYYADSVKGRFTISRDNAKNTVYFQMNSLKPEDTAVYYCAAPTSSSGRYHRYYYWVQGTQVTVSS,high polyreactivity
18,QVQLVESGGGLVQAGGSLRLSCAASGSTFSSYAMGWYRQAPGKERELVAAITSRGSRTFYADSVKGRFTISRDNAKNTVYLQMNSLKPEDTAVYYCAAYFRIGTFGQYDYWGQGTQVTVSS,high polyreactivity
19,QVQLVESGGGLVQAGGSLRLSCAASGSTFSSYGMGWYRQAPGKERELVAAISKRGGSTYYADSVKGRFTISRDNAKNTVYLQMNSLKPEDTAVYYCAARYRLYYYFRFDWGQGTHVTVSS,high polyreactivity
20,QVQLVESGGGLVQAGGSLRLSCAASGSTFSSYVMGWYRQAPGKERELVAGITRGGRTYYADSVKGRFTISRDNAKNTGYLQMNSLKPEDTAVYYCAKDQGGVHELDYWGQGTQVTVSS,low polyreactivity
21,QVQLVESGGGLVQAGGSLRLSCAASGSTFSTYAMGWYRQAPGKERELVARITRSDTGTYYADSVKGRFTISRDNAKNTVYLQMNSLKPEDTAVYYCAADGWYDDSGWYYGYDYWGQGTQVTVSS,low polyreactivity

row,Sequence,polyreactivity (PSR sort gate)
1,QVQLVESGGGLVQAGGSLRLSCAASGSTFSVYAMGWYRQAPGKERELVARITGGSTYADSVKGRFTISRDNAKNTVYLQMNSLKPEDTAVYFCNAYRYWSPGYDYWGQGTQVTVSS,low polyreactivity
2,QVQLVESGGGLVQAGGSLRLSCAASGSTFSWNTMGWYRQAPGKERELVADIRTSGGGTYYADSVKGRFTISRDNAKNSVYLQMNSLKPEDTAVYYCNGDPKWEMVSWGQGTQVTVSS,low polyreactivity
3,QVQLVESGGGLVQAGGSLRLSCAASGSTFSWYAMGWYRQAPGKERELVASISWRGGSTYYADSVKGRFTISRDNAKNTVSLQMNSLKPEDTAVYYCAADYDWKLFHEPPAVYDYDYWGQGTQVTVSS,low polyreactivity
4,QVQLVESGGGLVQAGGSLRLSCAASGSTFSYNAMGWYRQAPGKERELVAAIDANGGSTYYADSVKGRFTISRDNAKNTVYVQMNSLKPEDTAVYYCAAAGYWYYYVPNDSWGQGTQVTVSS,low polyreactivity
5,QVQLVESGGGLVQAGGSLRLSCAASGSTFSYNAMGWYRQAPGKERELVAAIRWGGGSTYYADSVKGRFTISCDNAKNTVYLQMNSLKPEDTAVYYCARYGYRRVGSRWAEFDYWGQGTQVTVSS,high polyreactivity
6,QVQLVESGGGLVQAGGSLRLSCAASGSTFSYNAMGWYRQAPGKERELVAAISRGGITNYADSVKGRFTISRDNAKNTVYLQMNSLKPEDTAVYYCAVRHVWPWQGYDYWGQGTQVTVSS,low polyreactivity
7,QVQLVESGGGLVQAGGSLRLSCAASGSTFSYNAMGWYRQAPGKERELVAAITSSGSSTYYADSVKGRFTISRYNAKNTVYLQMNSLKPEDTAVYYCNAEVLFVAGQVQRNSGDYWGQGTQVTVSS,low polyreactivity
8,QVQLVESGGGLVQAGGSLRLSCAASGSTFSYNAMGWYRQAPGKERELVASISTSGGSTYYADSVKGRFTISRDNAKNTVYLQMNSLKPEDTAVYYCNAPTSDMYSDFDYWGQGTQVTVSS,low polyreactivity
9,QVQLVESGGGLVQAGGSLRLSCAASGSTFSYNTMGWYRQAPGKERELVASNTRSGGSTNYADSVKGRFTISRDNAKNTVYLQMNSLKPEDTAVYYCAKDYISVWNVRASDYYWYDYWGQGTQVTVSS,low polyreactivity
10,QVQLVESGGGLVQAGGSLRLSCAASGSTFSYYAMGWYRQAPGKERELVAAITRSGGRTYYADSVKGRFTISRDNAKNTVYLQMNSLKPEDTAVYYCAALSVGTRRDYWGQGTQVTVSS,low polyreactivity
11,QVQLVESGGGLVQAGGSLRLSCAASGSTFSYYAMGWYRQAPGKERELVASITWNGARTYYADSVKGRFTISRDNAKNTVYLQMNSLKPEDTAVYYCADRHKYAFWTAFGNYWGQGTQVTVSS,high polyreactivity
12,QVQLVESGGGLVQAGGSLRLSCAASGSTFSYYAMGWYRQAPGKERELVAVISRGGSTNYADSVKGRFTISRDNAKNTVYLQMNSLKPEDTAVYYCAAYVLPWRGRGQTEYGYWGQGTQVTVSS,low polyreactivity
13,QVQLVESGGGLVQAGGSLRLSCAASGSTFSYYAMGWYRQAPVKERELVAAITSGGGRTYYADSVKGRFTISRDNAKNTVYLQMNSLKPEDTAVYYCNALSTLYNGYDYWGQGTQVTVSS,high polyreactivity
14,QVQLVESGGGLVQAGGSLRLSCAASGSTFSYYTMGWYRQAPGKERELVAAISKSGGITYYADSVKGRFTISRDNAKNTVYLQMNSLKPEDTAVYYCAADGGYYDDDYWGQGTQVTVSS,high polyreactivity
15,QVQLVESGGGLVQAGGSLRLSCAASGSTFSYYTMPWYRQAPGKERELVAAISRSGANTHYADSVKGRFTISRDNAKITVYLQMNSMKPEDTAVYYCAKVHSGRHYDYWGQGTQVTVSS,high polyreactivity
16,QVQLVESGGGLVQAGGSLRLSCAASGSTFTANAMGWYRQAPGKERELVAAISDTTGNTYYADSVKGRFTISRDNAKNTVYLQMNSLKPEDTAVYYCAARQFKSDIVVSLVDSWGQGTHVTVSS,low polyreactivity
17,QVQLVESGGGLVQAGGSLRLSCAASGSTFTGNAMGWYRPAPGKERELVADITWSDGSTDYADSVKGRFTISRDNAKNTVYLQMNSLKPDDTAVYYCNARITYYVGTAWYDYWGQGTQVTVSS,low polyreactivity
18,QVQLVESGGGLVQAGGSLRLSCAASGSTFTGYAMGWYRPAPGKEREFVAAISRSGGSTYYADSVKGRFTISRDNAKNTVYLQMNSLKPEDTAVYYCNARGFTRYTVGRNYWGQGTQVTVSS,high polyreactivity
19,QVQLVESGGGLVQAGGSLRLSCAASGSTFTGYAMGWYRQAPGKEMELVAAISISGGRTVYADSVKGRFTISRDNAKNTVYLQMNSLKREDTAVYYCNARYTRYTLRYYYWGQGTQVTVSS,high polyreactivity
20,QVQLVESGGGLVQAGGSLRLSCAASGSTFTGYAMGWYRQAPGKERELVAAISISGGRTFYADSVKGRFTISRDNAKNTVYLQKNSLKPEDTAVSYCAASLRGSKYSFDYWGQGTQVTVSS,high polyreactivity
